# B1: third SH3 domain (SH3-3) of yeast endocytic protein Sla1 (domain or fragment)
# chain: MASKSKKRGIVQYDFMAESQDELTIKSGDKVYILDDKKSKDWWMCQLVDSGKSGLVPAQFIEPVRDKKHTE
# notes: Sla1, yeast, third SH3 domain (SH3-3); residues E367, E371 and F409 are named as lying in the domain (PDB 2JT4); PDB 2JT4 is the cited NMR model of the complex with ubiquitin and may hold other limits; Plasmid bought from GeneCust; No removal of the tag is described; also called Sla1 SH3-3; source: cell-free expression (E. coli S15 extract, pIVEX2.3d vector), purified (HisTrap FF)
# Target: T1, human ubiquitin (human, UniProt P0CG48 1-76)
# T1 construct: ubiquitin, human, the 76 amino acid-long protein (cut product of the polyubiquitin or ubiquitin-ribosomal fusion precursors); Isotope-labelled only (uniformly 15N, arginines 13Cdelta/2Hbeta,gamma/15Nepsilon); No tag is mentioned and the purification uses none; also called arginine-labeled ubiquitin; source: E. coli BL21(DE3), pET-21a(+), purified (heat shock at 70 °C, anion exchange, size …)
# Assay: NMR titration; 70 µM arginine-labeled (U-15N, 13Cδ/2Hβγ/15Nε Arg) ubiquitin titrated with increasing amounts of unlabeled Sla1 SH3-3; 50 mM Tris-HCl, pH 8.0, 25 °C; 1H-13C HSQC and 1H-15N SOFAST-HMQC, chemical shift perturbations
# Conditions: both partners purified
binder,measurement,value
B1,binding result,binds
